The target of this assay is Cry2-mCh-METTL3 (wild type, full-length construct), Q86U44. In words: FRET or BRET; FLIM-FRET in live HEK293T; EGFP fusion as donor, Cry2-mCh-METTL3 (mCherry) as acceptor; photons collected from inside condensates formed after blue light illumination (30 seconds). Conditions: remark: other sources report otherwise. (BRET reads energy transfer from a luciferase to a nearby fluorophore.)

The source of these data is PMC8865655.

Chain of Cry2-mCh-METTL3 (wild type, full-length construct), Q86U44 (Q86U44 whole entry, the tested form may be a part): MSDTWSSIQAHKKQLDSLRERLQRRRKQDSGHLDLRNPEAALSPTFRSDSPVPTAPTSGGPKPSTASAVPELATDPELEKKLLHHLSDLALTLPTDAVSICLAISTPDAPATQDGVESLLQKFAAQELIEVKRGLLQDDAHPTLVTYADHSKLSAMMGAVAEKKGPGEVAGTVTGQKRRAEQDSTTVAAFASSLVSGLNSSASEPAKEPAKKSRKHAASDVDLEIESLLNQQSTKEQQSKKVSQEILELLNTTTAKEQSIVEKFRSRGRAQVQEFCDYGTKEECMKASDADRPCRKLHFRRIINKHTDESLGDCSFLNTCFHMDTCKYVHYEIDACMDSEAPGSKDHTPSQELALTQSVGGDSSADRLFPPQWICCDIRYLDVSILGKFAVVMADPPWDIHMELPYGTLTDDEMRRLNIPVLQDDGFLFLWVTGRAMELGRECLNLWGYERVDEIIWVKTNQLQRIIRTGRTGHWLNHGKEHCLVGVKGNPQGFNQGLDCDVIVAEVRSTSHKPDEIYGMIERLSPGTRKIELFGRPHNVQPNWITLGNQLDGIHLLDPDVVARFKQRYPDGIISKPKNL

B1: EGFP-WTAP, Q15007 1-396 (natural protein)
chain: MTNEEPLPKKVRLSETDFKVMARDELILRWKQYEAYVQALEGKYTDLNSNDVTGLRESEEKLKQQQQESARRENILVMRLATKEQEMQECTTQIQYLKQVQQPSVAQLRSTMVDPAINLFFLKMKGELEQTKDKLEQAQNELSAWKFTPDSQTGKKLMAKCRMLIQENQELGRQLSQGRIAQLEAELALQKKYSEELKSSQDELNDFIIQLDEEVEGMQSTILVLQQQLKETRQQLAQYQQQQSQASAPSTSRTTASEPVEQSEATSKDCSRLTNGPSNGSSSRQRTSGSGFHREGNTTEDDFPSSPGNGNKSSNSSEERTGRGGSGYVNQLSAGYESVDSPTGSENSLTHQSNDTDSSHDPQEEKAVSGKGNRTVGSRHVQNGLDSSVNVQGSVL
Regarding B1, the EGFP fluorescence lifetime (FLIM-FRET) amounted to 2.01 ns.
